Reference: US20120316071A1 (published 2012)
Changes are numbered by the printed parent chain. Names and notes keep the numbering of the source.

B1: Fab VH1-46_IGHD6-6*01_IGHJ1*01 & L6_IGKJ1*01 (Fab, V domains shown)
VH: QVQLVQSGAEVKKPGASVKVSCKASGYTFTSYYMHWVRQAPGQGLEWMGIINPSGGSTSYAQKFQGRVTMTRDTSTSTVYMELSSLRSEDTAVYYCAREEYSSSSAEYFQHWGQGTLVTVSS
VL: not shown
notes: Fab expressed in E. coli; VH was cloned into Plasmid A (heavy chain CH1 constant region, His6 and Flag tags) and VL into Plasmid C (kappa CL); also called parental; wildtype
B2: Fab VH1-46_IGHD6-6*01_IGHJ1*01 S102A/S103P/S104F/H111F I51V/N52L/S54T/G56H (APFF VLTH) & L6_IGKJ1*01 S28N/S30D/S31H S52L/A55S (NDH LS) (Fab, V domains shown)
VH: B1 VH with I51V, N52L, S54T, G56H, S102A, S103P, S104F, H111F
VL: EIVLTQSPATLSLSPGERATLSCRASQNVDHYLAWYQQKPGQAPRLLIYDALNRSTGIPARFSGSGSGTDFTLTISSLEPEDFAVYYCQQRSNWPPWTFGQGTKVEIKR
notes: Fab with CH1 (Plasmid A, His6 and Flag tags) and kappa CL (Plasmid C); also called H:APFF VLTH & L:NDH LS
B3: Fab VH1-46_IGHD6-6*01_IGHJ1*01 S102A/S103P/S104F (APF) & L6_IGKJ1*01 (Fab, V domains shown)
VH: B1 VH with S102A, S103P, S104F
VL: not shown
notes: Fab with CH1 (Plasmid A, His6 and Flag tags) and kappa CL (Plasmid C); also called H:APF & L:wt; APF triple mutant
B4: Fab VH1-46_IGHD6-6*01_IGHJ1*01 S102A/S103P/S104F/H111F G56H (APFF G56H) & L6_IGKJ1*01 (Fab, V domains shown)
VH: B1 VH with G56H, S102A, S103P, S104F, H111F
VL: not shown
notes: Fab with CH1 (Plasmid A, His6 and Flag tags) and kappa CL (Plasmid C)
B5: Fab VH1-46_IGHD6-6*01_IGHJ1*01 S102A/S103P/S104F/H111F (APFF) & L6_IGKJ1*01 (Fab, V domains shown)
VH: B1 VH with S102A, S103P, S104F, H111F
VL: not shown
notes: Fab with CH1 (Plasmid A, His6 and Flag tags) and kappa CL (Plasmid C); also called H:APFF & L:wt
B6: Fab VH1-46_IGHD6-6*01_IGHJ1*01 S102A/S103P/S104F/H111Y (APFY) & L6_IGKJ1*01 (Fab, V domains shown)
VH: B1 VH with S102A, S103P, S104F, H111Y
VL: not shown
notes: as for B4
B7: Fab VH1-46_IGHD6-6*01_IGHJ1*01 S102A/S103P/S104F (APF) & L6_IGKJ1*01 S31K (Fab, V domains shown)
VH: B1 VH with S102A, S103P, S104F
VL: B2 VL with N28S, D30S, H31K, L52S, S55A
notes: as for B4
B8: Fab VH1-46_IGHD6-6*01_IGHJ1*01 S102A/S103P/S104F/H111F I51V/N52L/S54T/G56H (APFF VLTH) & L6_IGKJ1*01 S28N/S30D/S31H (NDH) (Fab, V domains shown)
VH: B1 VH with I51V, N52L, S54T, G56H, S102A, S103P, S104F, H111F
VL: B2 VL with L52S, S55A
notes: Fab with CH1 (Plasmid A, His6 and Flag tags) and kappa CL (Plasmid C); also called H:APFF VLTH & L:NDH
B9: Fab VH1-46_IGHD6-6*01_IGHJ1*01 S104F & L6_IGKJ1*01 (Fab, V domains shown)
VH: B1 VH with S104F
VL: not shown
notes: as for B4
B10: Fab VH5-51_IGHD5-18*01>3_IGHJ4*01 G100K/G104T & V3-4_IGLJ1*01 (Fab, V domains shown)
VH: EVQLVQSGAEVKKPGESLKISCKGSGYSFTSYWIGWVRQMPGKGLEWMGIIYPGDSDTRYSPSFQGQVTISADKSISTAYLQWSSLKASDTAMYYCARRKYSYTYDYFDYWGQGTLVTVSS
VL: QTVVTQEPSFSVSPGGTVTLTCGLSSGSVSTSYYPSWYQQTPGQAPRTLIYSTNTRSSGVPDRFSGSILGNKAALTITGAQADDESDYYCVLYMGSGISYVFGTGTKVTVL
notes: Fab; expressed with CH1 (His and Flag tags) and lambda CL from the expression plasmids; also called H:KT & L:wt; KT double mutant
B11: Fab VH5-51_IGHD5-18*01>3_IGHJ4*01 G100K/G104T & V3-4_IGLJ1*01 V91H (Fab, V domains shown)
VH: B10 VH
VL: B10 VL with V91H
notes: Fab; expressed with CH1 (His and Flag tags) and lambda CL from the expression plasmids; also called H:KT & V91H
B12: Fab VH5-51_IGHD5-18*01>3_IGHJ4*01 G100K/G104T & V3-4_IGLJ1*01 M94F (Fab, V domains shown)
VH: B10 VH
VL: B10 VL with M94F
notes: Fab; expressed with CH1 (His and Flag tags) and lambda CL from the expression plasmids; also called H:KT & M94F
B13: Fab VH5-51_IGHD5-18*01>3_IGHJ4*01 G100K/G104T & V3-4_IGLJ1*01 M94R (Fab, V domains shown)
VH: B10 VH
VL: B10 VL with M94R
notes: Fab; expressed with CH1 (His and Flag tags) and lambda CL from the expression plasmids; also called H:KT & M94R
B14: Fab VH5-51_IGHD5-18*01>3_IGHJ4*01 G100K/G104T & V3-4_IGLJ1*01 V91I (Fab, V domains shown)
VH: B10 VH
VL: B10 VL with V91I
notes: Fab; expressed with CH1 (His and Flag tags) and lambda CL from the expression plasmids; also called H:KT & V91I
B15: Fab VH5-51_IGHD5-18*01>3_IGHJ4*01 G100K/G104T & V3-4_IGLJ1*01 M94S (Fab, V domains shown)
VH: B10 VH
VL: B10 VL with M94S
notes: Fab; expressed with CH1 (His and Flag tags) and lambda CL from the expression plasmids; also called H:KT & M94S
B16: Fab VH5-51_IGHD5-18*01>3_IGHJ4*01 G100K/G104T & V3-4_IGLJ1*01 M94D (Fab, V domains shown)
VH: B10 VH
VL: B10 VL with M94D
notes: Fab; expressed with CH1 (His and Flag tags) and lambda CL from the expression plasmids; also called H:KT & M94D
B17: Fab VH5-51_IGHD5-18*01>3_IGHJ4*01 G100K/G104T & V3-4_IGLJ1*01 M94G (Fab, V domains shown)
VH: B10 VH
VL: B10 VL with M94G
notes: Fab; expressed with CH1 (His and Flag tags) and lambda CL from the expression plasmids; also called H:KT & M94G
B18: Fab VH5-51_IGHD5-18*01>3_IGHJ4*01 G100K/G104T & V3-4_IGLJ1*01 V91G (Fab, V domains shown)
VH: B10 VH
VL: B10 VL with V91G
notes: Fab; expressed with CH1 (His and Flag tags) and lambda CL from the expression plasmids; also called H:KT & V91G

target: T1, Recombinant Human DLL4 (delta-like protein 4) (human, UniProt Q9NR61 27-524); assay: SPR, Fab on recombinant human DLL4
T1 construct: Bought recombinant human DLL4 (R&D Systems Cat#1506-D4/CF); also called rHuman DLL4; Delta-like ligand 4

Kd [nM]	koff [s⁻¹]	kon [M⁻¹ s⁻¹]	Binder
730	0.101	163000	B1
1.7	0.00109	684000	B2
122	0.0492	405000	B3
32.7	0.0101	351000	B4
70.6	0.03	425000	B5
93.1	0.0317	340000	B6
112	0.0392	350000	B7
2.7	0.00113	430000	B8
380	0.19	500000	B9

target: T2, Recombinant Human DLL4 (delta-like protein 4) (human, UniProt Q9NR61 27-524); assay: ELISA, DLL4-coated plate, 100 nM Fab
T2 construct: Bought recombinant human DLL4 (R&D Systems Cat#1506-D4/CF); also called rHuman DLL4

ELISA Signal [100 nM Fab]	Binder
0.01	B10
0.01	B11
0.01	B12
0.01	B13
0.01	B14
0.02	B15
0.01	B16
0.01	B17
0.01	B18

target: T2, Recombinant Human DLL4 (delta-like …); assay: ECL (MSD) binding assay, immobilised DLL4, 10 nM Fab;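 also: fab binding read as electrochemiluminescence via a TAG-labelled detection antibody, 1 h incubations at 20 °C, antigen signal compared with each well's blank, ratio of at least 4 scored as binder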

ECL Signal [10 nM Fab]	Binder
42900	B10
27100	B11
26300	B12
77800	B13
51200	B14
49600	B15
52700	B16
20300	B17
45300	B18
